Test results published in publication PMC2855102.
Values belong to the substance of their own block, whether it stands above or below them.

Legend:
[1] = target: actin (thin filament, F-actin) of mouse left ventricular myocardium (mouse (endogenous in C57/BL6 left ventricle)) (UniProt P68033)
[2] = target: actin (thin filament, F-actin) of mouse left ventricular myocardium (mouse (endogenous in C57/BL6 left ventricle)) (UniProt P68033); remark: listed apart in the source
[3] = target: actin (thin filament, F-actin) of mouse left ventricular myocardium (mouse (endogenous in C57/BL6 left ventricle)) (UniProt P68033); remark: listed apart in the source
[4] = target: actin (thin filament, F-actin) of mouse left ventricular myocardium (mouse (endogenous in C57/BL6 left ventricle)) (UniProt P68033); remark: listed apart in the source
[5] = target: actin (thin filament, F-actin) of bovine myocardium (bovine (endogenous in left ventricle and left atrium)) (UniProt Q3ZC07)
[6] = target: actin (thin filament, F-actin) of bovine myocardium (bovine (endogenous in left ventricle and left atrium)) (UniProt Q3ZC07); remark: listed apart in the source
[7] = target: actin (thin filament, F-actin) of bovine myocardium (bovine (endogenous in left ventricle and left atrium)) (UniProt Q3ZC07); remark: listed apart in the source

- decrease of hysteresis (area of the force-length loop of stretch-release cycles) of skinned MLV after actin extraction with gelsolin, at SL 2.25 μm [1]: 33%
- reduction of total passive tension during stretch of skinned MLV after thin filament (actin) extraction with gelsolin, at SL 2.25 μm [2]: 22%
- reduction of titin-based passive tension of skinned MLV after thin filament (actin) extraction with gelsolin, at SL 2.25 μm (calculated from total tension with titin's fractional contribution) [3]: 44%
- decrease of passive stiffness/tension during stretch of skinned MLV with both S100A1 (1 μg/μL, Sigma) and calcium (pCa 6.8), relative to pCa 9.0; stretch speeds 0.1 and 2.0 length/sec [4]: < 20%
Substance: titin (connectin) of mouse left ventricular myocardium, predominately the N2B isoform (natural protein)

- decrease of hysteresis (area of the force-length loop of stretch-release cycles) of skinned BLA after actin extraction with gelsolin, at SL 2.25 μm [5]: 35%
- reduction of total passive tension during stretch of skinned BLA after thin filament (actin) extraction with gelsolin, at SL 2.25 μm [6]: 10%
- reduction of titin-based passive tension of skinned BLA after thin filament (actin) extraction with gelsolin, at SL 2.25 μm (calculated from total tension with titin's fractional contribution) [7]: 12%
Substance: titin of bovine left atrial myocardium, mainly the N2BA isoform (natural protein)

- decrease of hysteresis (area of the force-length loop of stretch-release cycles) of skinned BLV after actin extraction with gelsolin, at SL 2.25 μm [5]: 52%
- reduction of total passive tension during stretch of skinned BLV after thin filament (actin) extraction with gelsolin, at SL 2.25 μm [6]: 17%
- reduction of titin-based passive tension of skinned BLV after thin filament (actin) extraction with gelsolin, at SL 2.25 μm (calculated from total tension with titin's fractional contribution) [7]: 20%
Substance: titin of bovine left ventricular myocardium, a mixture of the N2B and N2BA isoforms (natural protein)
